Measured values as given in patent US20210145976A1 (ARO BIOTHERAPEUTICS, published 2021).

B1: SEQ ID NO 35 (designed binder)
chain: MLPAPKNLVVSRVTEDSARLSWTAPDAAFDSFEIAYFEAIWNGEAIYLTVPGSERSYDLTGLKPGTEYQVEIRGVKGGPTSRPLFAWFTT
notes: FN3 domain
B2: SEQ ID NO 56 (designed binder)
chain: MLPAPKNLVVSRVTEDSARLSWTAPDAAFDSFVIEYFEALEGGEAIVLTVPGSERSYDLTGLKPGTEYFVGIYGVKGGPLSKPLSAIFTT
notes: FN3 domain
B3: SEQ ID NO 57 (designed binder)
chain: MLPAPKNLVVSRVTEDSARLSWTAPDAAFDSFSIKYLEWWQDGEAIVLTVPGSERSYDLTGLKPGTEYYVHIAGVKGGYRSYPLSAIFTT
notes: FN3 domain
B4: SEQ ID NO 60 (designed binder)
chain: MLPAPKNLVVSRVTEDSARLSWTAPDAAFDSFTIWYAEAIGHGEAIVLTVPGSERSYDLTGLKPGTEYWVDIWGVKGGQQSKPLSAIFTT
notes: FN3 domain
B5: SEQ ID NO 38 (designed binder)
chain: MLPAPKNLVVSRVTEDSARLSWTAPDAAFDSFHIAYEESHTTGEAIFLRVPGSERSYDLTGLKPGTEYSVSIEGVKGGHYSPPLTAKFTT
notes: FN3 domain
B6: SEQ ID NO 37 (designed binder)
chain: MLPAPKNLVVSRVTEDSARLSWTAPDAAFDSFHIIYTEEEKEGEAIYLRVPGSERSYDLTGLKPGTEYLVEIEGVKGGKRSVPLNASFTT
notes: FN3 domain
B7: SEQ ID NO 34 (designed binder)
chain: MLPAPKNLVVSRVTEDSARLSWTAPDAAFDSFAITYIEWWDVGEAIGLKVPGSERSYDLTGLKPGTEYRVHIQGVKGGNNSYPLDALFTT
notes: FN3 domain
B8: SEQ ID NO 54 (designed binder)
chain: MLPAPKNLVVSRVTEDSARLSWTAPDAAFDSFQILYQENAFEGEAIVLTVPGSERSYDLTGLKPGTEYWVYIYGVKGGYPSVPLSAIFTT
notes: FN3 domain

target: T1, recombinant biotinylated CD71 extracellular domain (Sino Biologics) with an N-terminal 6His tag (human, UniProt P02786 89-760, biotinylated (sites not given)); assay: screening ELISA
T1 construct: extracellular domain; also called hCD71; huCD71
Protocol: (§1) To screen for FN3 domains that specifically bind CD71, streptavidin-coated Maxisorp plates (Nunc catalog 436110) were blocked for 1 hour in Starting Block T20 (Pierce) and then coated with biotinylated CD71 (using same antigen as in panning) or negative controls (an unrelated Fc-fused recombinant protein and human serum albumin) for 1 hour. Plates were rinsed with TBST and diluted lysate was applied to plates for 1 hour. Following additional rinses, wells were treated with HRP-conjugated anti-V5 tag antibody (Abcam, ab1325), for 1 hour and then assayed with POD (Roche, 11582950001).

T1 sequence (P02786 other isoform, or with tags, fused parts or gaps): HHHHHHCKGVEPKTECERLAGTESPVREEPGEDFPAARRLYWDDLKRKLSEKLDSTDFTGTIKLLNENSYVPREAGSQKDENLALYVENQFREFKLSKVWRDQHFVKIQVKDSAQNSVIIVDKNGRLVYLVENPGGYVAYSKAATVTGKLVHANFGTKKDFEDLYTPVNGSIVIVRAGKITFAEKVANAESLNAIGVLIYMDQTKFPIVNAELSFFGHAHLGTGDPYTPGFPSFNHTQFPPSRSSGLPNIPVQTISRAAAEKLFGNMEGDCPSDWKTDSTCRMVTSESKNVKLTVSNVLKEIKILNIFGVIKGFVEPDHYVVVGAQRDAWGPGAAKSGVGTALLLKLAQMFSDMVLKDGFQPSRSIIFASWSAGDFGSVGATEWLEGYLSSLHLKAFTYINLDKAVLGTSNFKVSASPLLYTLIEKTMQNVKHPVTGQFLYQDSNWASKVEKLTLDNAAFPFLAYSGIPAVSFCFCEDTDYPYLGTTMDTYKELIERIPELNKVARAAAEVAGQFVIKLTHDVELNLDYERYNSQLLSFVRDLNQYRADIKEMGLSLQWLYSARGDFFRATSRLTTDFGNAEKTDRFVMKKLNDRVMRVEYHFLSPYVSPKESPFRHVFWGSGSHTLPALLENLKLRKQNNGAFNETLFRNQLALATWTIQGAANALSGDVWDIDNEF

Binder | hCD71
B1 | 3.24e+06
B2 | 1.13e+07
B3 | 1.9e+06
B4 | 4.48e+06
B5 | 840000
B6 | 1.27e+06
B7 | 310000
B8 | 6.99e+06

target: T1, recombinant biotinylated CD71 …; assay: screening ELISA, ratio
Protocol: as §1

Binder | huCD71/Fc
B1 | 2130
B2 | 1510
B3 | 113
B4 | 691
B5 | 202
B6 | 467
B7 | 12
B8 | 1130

target: T2, CD71 on SK-BR-3 cells (human, UniProt P02786 1-760); assay: cell-based or functional assay
T2 sequence (P02786 whole entry): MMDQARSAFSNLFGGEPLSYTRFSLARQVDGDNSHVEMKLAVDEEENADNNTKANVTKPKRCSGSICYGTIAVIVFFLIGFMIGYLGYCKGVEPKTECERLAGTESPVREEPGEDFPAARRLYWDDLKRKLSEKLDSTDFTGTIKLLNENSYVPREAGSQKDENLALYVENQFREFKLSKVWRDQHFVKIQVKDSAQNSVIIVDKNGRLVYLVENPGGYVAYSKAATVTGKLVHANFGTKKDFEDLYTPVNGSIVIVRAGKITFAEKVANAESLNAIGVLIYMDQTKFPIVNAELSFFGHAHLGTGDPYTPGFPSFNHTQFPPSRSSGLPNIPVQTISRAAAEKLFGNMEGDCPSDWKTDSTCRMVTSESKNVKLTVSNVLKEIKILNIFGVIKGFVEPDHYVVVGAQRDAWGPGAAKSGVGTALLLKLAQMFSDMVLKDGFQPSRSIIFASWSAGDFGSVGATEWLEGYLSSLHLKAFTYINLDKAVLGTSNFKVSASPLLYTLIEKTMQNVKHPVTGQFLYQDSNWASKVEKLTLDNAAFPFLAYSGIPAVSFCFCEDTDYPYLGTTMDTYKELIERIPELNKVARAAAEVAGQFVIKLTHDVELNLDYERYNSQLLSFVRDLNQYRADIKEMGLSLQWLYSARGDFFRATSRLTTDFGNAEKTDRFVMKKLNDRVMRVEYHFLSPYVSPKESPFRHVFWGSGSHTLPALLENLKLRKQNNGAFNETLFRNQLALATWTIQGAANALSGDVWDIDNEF

Binder | IC50, SKBR-3 cell viability, MMAF conjugate
B1 | 2.5 nM
B2 | 0.24 nM
B3 | 3.13 nM
B4 | 0.45 nM
B5 | 3.82 nM
B6 | 0.15 nM
B7 | 0.37 nM
B8 | 0.4 nM

target: T2, CD71 on SK-BR-3 cells; assay: cell-based or functional assay; remark: another data set of the same source

Binder | IC50, SK-BR3 viability, MMAF conjugate, no competitor | IC50, SK-BR3 viability, MMAF conjugate, with 0.6 uM holo-human transferrin
B1 | 0.7 nM | 41.5 nM
B2 | 0.35 nM | 14.7 nM
B3 | 0.38 nM | 5.3 nM
B4 | 0.21 nM | 14.4 nM
B5 | 4 nM | ~120 nM
B6 | 0.7 nM | 143 nM
B7 | 1.3 nM | 196 nM
B8 | 0.13 nM | 5 nM
